Source: publication PMC8142254, “The mycobacterial proteasomal ATPase Mpa forms a gapped ring to engage the 20S proteasome” (The Journal of Biological Chemistry, 2021)

Legend:
[1] = biological target: Mycobacterium tuberculosis proteasomal ATPase Mpa, full-length (1–609) (Mycobacterium tuberculosis) (UniProt P9WQN5); test: not stated; stoichiometry of the in vitro assembled Pup–FabD:Mpa complex; how it was found is not told
[2] = biological target: the molecule itself; test: cryo-EM structure

Molecule “Pup–FabD (Pup translationally fused to the N terminus of malonyl CoA-acyl carrier protein transacylase)” has a stoichiometry N (Pup–FabD per Mpa hexamer) [1] of 1.

B1: Mycobacterium tuberculosis proteasomal ATPase Mpa, full-length (1–609) (enzyme)
chain: MGESERSEAFGIPRDSPLSSGDAAELEQLRREAAVLREQLENAVGSHAPTRSARDIHQLEARIDSLAARNSKLMETLKEARQQLLALREEVDRLGQPPSGYGVLLATHDDDTVDVFTSGRKMRLTCSPNIDAASLKKGQTVRLNEALTVVEAGTFEAVGEISTLREILADGHRALVVGHADEERVVWLADPLIAEDLPDGLPEALNDDTRPRKLRPGDSLLVDTKAGYAFERIPKAEVEDLVLEEVPDVSYADIGGLSRQIEQIRDAVELPFLHKELYREYSLRPPKGVLLYGPPGCGKTLIAKAVANSLAKKMAEVRGDDAHEAKSYFLNIKGPELLNKFVGETERHIRLIFQRAREKASEGTPVIVFFDEMDSIFRTRGTGVSSDVETTVVPQLLSEIDGVEGLENVIVIGASNREDMIDPAILRPGRLDVKIKIERPDAEAAQDIYSKYLTEFLPVHADDLAEFDGDRSACIKAMIEKVVDRMYAEIDDNRFLEVTYANGDKEVMYFKDFNSGAMIQNVVDRAKKNAIKSVLETGQPGLRIQHLLDSIVDEFAENEDLPNTTNPDDWARISGKKGERIVYIRTLVTGKSSSASRAIDTESNLGQYL
notes: Mpa (mycobacterial proteasome ATPase), Mycobacterium tuberculosis, full-length, residues 1-609; Homohexamer; In the cryo-EM model the coiled-coil domains and two of the six AAA domains are not resolved; also called mycobacterial proteasome ATPase; WT Mpa
B1 was tested, and the “stoichiometry N” value [2] was 6.
